One data set concerns the target P08799. Briefly: sedimentation assembly assay; self-assembly into filaments or paracrystals; 10 uM protein added to an equal volume, 10 mM imidazole pH 7.5, 0.1 mM EDTA, 1 mM DTT, 0-250 mM NaCl, on ice at least 30 min, 132,000 x g 15 min 4 °C; supernatant and pellet by SDS-PAGE. To be noted: other: sedimentation assembly assay.
Data set [1] concerns the molecule itself. The description is as above.
Data set [2] concerns the molecule itself. In words: AUC; sedimentation equilibrium; step: single chains to two-stranded coiled coil; 10.5-52 uM protein, 10 mM Tris pH 7.4, 0.1 mM EDTA, 500 mM NaCl, 10 °C, 10,000 rpm; fit to a single non-associating ideal species.

As usually defined, the stoichiometry N is a count of units in the complex or per binding partner.

Where a chain is given by its changes, count along the chain named.

B1: extended AD (2xAsp) (protein)
chain: MNVEFIRKKDAEIDDLRARLDRETESRIKSDEDKKNTRKQFADLEAKVEEAQREVVTIDRLKKKLESDIIDLSTQLDTETKSRIKIEKSKKKLEQTLAERRAAEEGSSKAADEEIRKQVWQEVDELRAQLDSERAALNASEKKIKSLVAEVDEVKEQLEDEILAKDKLVKAKRALEVELEEVRDQLEEEEDSRSELEDSKRRLTTEVEDIKKKYDAEVEQNTKLDEAKKKLTDDVDTLKKQLEDEKKKLNESERAKKRLESENEDFLAKLDAEVKNRSRAEKDRKKYEKDLKDDKYKLNDEAADKTQTEIG
With B1, in the data set with P08799, the “fold difference in solubility against extended AD (2xThr)” value was “extended AD (2xThr) and extended AD (2xAsp) show a four-fold difference in solubility”.

B2: extended AD (2xThr) (domain or fragment, Dictyostelium discoideum)
chain: B1 chain with D294T, D304T
notes: N-terminal methionine added before the myosin residues; Dictyostelium myosin-II heavy chain, a.a; 1,531-1,840; also called headless extended AD (2xThr); source: E. coli BL21-CodonPlus (DE3)-RIL, purified (boiling, DEAE, Superdex 200, Mono Q)
For the protein B2, in data set [1], the binding result is on record as “binds”.

B3: AD-Ala 2 (2xThr) (domain or fragment, Dictyostelium discoideum)
chain: MNVEFIRKKDAEIDDLRARLDRETESRIKSDEDKKNTRKQFADLEAKVEEAQREVVTIDRLKKKLESDIIDLSTQLDTETKSRIKIEKSKKKLEQTLAERRAAEEGSSKAADEEIRKQVWQEVDELRAQLDSERAALNASEKKIKSLVAEVDEVKEQLEDEILAKDKLVKAKRALEVELEEVRDQLEEEEDSRSELEDSKRRLTTEVEDIKKKYDAEVEQNTKLDEAKKKLTDDVDTLKKQLEDEKKKLNESERAKKRLESENEDFLAKLDAEVKNRSRAEKDRKKYEKDLKDTKYKLNDEAATKTQTEIGAAKLEDQIDELRSKLEQEQAKATQADKSKKTLEGEIDNLRAQIEDEGKIKMRLEKEKRALEGELEELRETVEEAEDSKSEAEQSKRLVELELEDARRNLQKEIDAKEIAEDAKSNLQREIVEAKGR
notes: N-terminal methionine added before the myosin residues; Dictyostelium myosin-II heavy chain, a.a; 1,531-1,966 (AD through Ala 2); also called headless AD-Ala2 (2xThr); source: E. coli BL21-CodonPlus (DE3)-RIL, purified (boiling, DEAE, Superdex 200, Mono Q)
Consider B3, for which the binding result in data set [1] is on record as “binds”.

B4: Ala1-Cterm (3xThr) (domain or fragment, Dictyostelium discoideum)
chain: MLDEIKRQYADVVSSRDKSVEQLKTLQAKNEELRNTAEEAEGQLDRAERSKKKAEFDLEEAVKNLEEETAKKVKAEKAMKKAETDYRSTKSELDDAKNVSSEQYVQIKRLNEELSELRSVLEEADERCNSAIKAKKTAESALESLKDEIDAANNAKAKAERKSKELEVRVAELEESLEDKSGTVNVEFIRKKDAEIDDLRARLDRETESRIKSDEDKKNTRKQFADLEAKVEEAQREVVTIDRLKKKLESDIIDLSTQLDTETKSRIKIEKSKKKLEQTLAERRAAEEGSSKAADEEIRKQVWQEVDELRAQLDSERAALNASEKKIKSLVAEVDEVKEQLEDEILAKDKLVKAKRALEVELEEVRDQLEEEEDSRSELEDSKRRLTTEVEDIKKKYDAEVEQNTKLDEAKKKLTDDVDTLKKQLEDEKKKLNESERAKKRLESENEDFLAKLDAEVKNRSRAEKDRKKYEKDLKDTKYKLNDEAATKTQTEIGAAKLEDQIDELRSKLEQEQAKATQADKSKKTLEGEIDNLRAQIEDEGKIKMRLEKEKRALEGELEELRETVEEAEDSKSEAEQSKRLVELELEDARRNLQKEIDAKEIAEDAKSNLQREIVEAKGRLEEESIARTNSDRSRKRLEAEIDALTAQVDAEQKAKNQQIKENKKIETELKEYRKKFGESEKTKTKEFLVVEKLETDYKRAKKEAADEQQQRLTVENDLRKHLSEISLLKDAIDKLQRDHDKTKRELETETASKIEMQRKMADFFGGFKA
notes: N-terminal methionine added before the myosin residues; Dictyostelium myosin-II heavy chain, a.a; 1,348-2,116 (Ala 1 through C terminus); also called headless Ala1-Cterm (3xThr); source: E. coli BL21-CodonPlus (DE3)-RIL, purified (boiling, DEAE, Superdex 200, Mono Q)
Regarding B4, the binding result in data set [1] is on record as “binds”.

B5: AD-Cterm (3xAsp) myosin-II tail fragment (domain or fragment, Dictyostelium discoideum)
chain: MNVEFIRKKDAEIDDLRARLDRETESRIKSDEDKKNTRKQFADLEAKVEEAQREVVTIDRLKKKLESDIIDLSTQLDTETKSRIKIEKSKKKLEQTLAERRAAEEGSSKAADEEIRKQVWQEVDELRAQLDSERAALNASEKKIKSLVAEVDEVKEQLEDEILAKDKLVKAKRALEVELEEVRDQLEEEEDSRSELEDSKRRLTTEVEDIKKKYDAEVEQNTKLDEAKKKLTDDVDTLKKQLEDEKKKLNESERAKKRLESENEDFLAKLDAEVKNRSRAEKDRKKYEKDLKDDKYKLNDEAADKTQTEIGAAKLEDQIDELRSKLEQEQAKATQADKSKKTLEGEIDNLRAQIEDEGKIKMRLEKEKRALEGELEELRETVEEAEDSKSEAEQSKRLVELELEDARRNLQKEIDAKEIAEDAKSNLQREIVEAKGRLEEESIARTNSDRSRKRLEAEIDALTAQVDAEQKAKNQQIKENKKIETELKEYRKKFGESEKDKTKEFLVVEKLETDYKRAKKEAADEQQQRLTVENDLRKHLSEISLLKDAIDKLQRDHDKTKRELETETASKIEMQRKMADFFGGFKA
notes: N-terminal methionine added before the myosin residues; Dictyostelium myosin-II heavy chain, a.a; 1,531-2,116, aspartic acids in place of the three threonine phosphorylation sites; Phosphomimetic; also called headless AD-Cterm (3xAsp); 3xAsp tail fragment; source: E. coli BL21-CodonPlus (DE3)-RIL, purified (boiling, DEAE, Superdex 200, Mono Q)
Regarding B5, in data set [2], the “stoichiometry N” value was 2. Also, in the data set with P08799, the “fold difference in solubility against AD-Cterm (3xThr)” value was “eight-fold difference in solubility of full-length unphosphorylated and phosphorylated myosin, respectively, and AD-Cterm (3xThr) and AD-Cterm (3xAsp), respectively”.

B6: AD-Cterm (3xThr) myosin-II tail fragment (domain or fragment, Dictyostelium discoideum)
chain: B5 chain with D294T, D304T, D500T
notes: N-terminal methionine added before the myosin residues; Dictyostelium myosin-II heavy chain, a.a; 1,531-2,116 (assembly domain through C terminus); the assembly rows are about coiled coils joining into paracrystals; also called headless AD-Cterm (3xThr); wild-type tail fragment; source: E. coli BL21-CodonPlus (DE3)-RIL, purified (boiling, DEAE, Superdex 200, Mono Q)
For B6, the “stoichiometry N” value in data set [2] was 2.

B7: AD (1xThr) myosin-II assembly domain (domain or fragment, Dictyostelium discoideum)
chain: MNVEFIRKKDAEIDDLRARLDRETESRIKSDEDKKNTRKQFADLEAKVEEAQREVVTIDRLKKKLESDIIDLSTQLDTETKSRIKIEKSKKKLEQTLAERRAAEEGSSKAADEEIRKQVWQEVDELRAQLDSERAALNASEKKIKSLVAEVDEVKEQLEDEILAKDKLVKAKRALEVELEEVRDQLEEEEDSRSELEDSKRRLTTEVEDIKKKYDAEVEQNTKLDEAKKKLTDDVDTLKKQLEDEKKKLNESERAKKRLESENEDFLAKLDAEVKNRSRAEKDRKKYEKDLKDTK
notes: N-terminal methionine added before the myosin residues; Dictyostelium myosin-II heavy chain, assembly domain, a.a; 1,531-1,824; also called headless AD (1xThr); 34-kDa assembly domain; source: E. coli BL21-CodonPlus (DE3)-RIL, purified (boiling, DEAE, Superdex 200, Mono Q)
For B7, in data set [1], the binding result was “binds”.

B8: AD (1xAsp) myosin-II assembly domain (domain or fragment, Dictyostelium discoideum)
chain: B7 chain with T294D
notes: N-terminal methionine added before the myosin residues; Dictyostelium myosin-II heavy chain, assembly domain, a.a; 1,531-1,824; also called headless AD (1xAsp); source: E. coli BL21-CodonPlus (DE3)-RIL, purified (boiling, DEAE, Superdex 200, Mono Q)
As to B8, the binding result in data set [1] is “binds”.

B9: Ala1-Ala2 (2xThr) (domain or fragment, Dictyostelium discoideum)
chain: MLDEIKRQYADVVSSRDKSVEQLKTLQAKNEELRNTAEEAEGQLDRAERSKKKAEFDLEEAVKNLEEETAKKVKAEKAMKKAETDYRSTKSELDDAKNVSSEQYVQIKRLNEELSELRSVLEEADERCNSAIKAKKTAESALESLKDEIDAANNAKAKAERKSKELEVRVAELEESLEDKSGTVNVEFIRKKDAEIDDLRARLDRETESRIKSDEDKKNTRKQFADLEAKVEEAQREVVTIDRLKKKLESDIIDLSTQLDTETKSRIKIEKSKKKLEQTLAERRAAEEGSSKAADEEIRKQVWQEVDELRAQLDSERAALNASEKKIKSLVAEVDEVKEQLEDEILAKDKLVKAKRALEVELEEVRDQLEEEEDSRSELEDSKRRLTTEVEDIKKKYDAEVEQNTKLDEAKKKLTDDVDTLKKQLEDEKKKLNESERAKKRLESENEDFLAKLDAEVKNRSRAEKDRKKYEKDLKDTKYKLNDEAATKTQTEIGAAKLEDQIDELRSKLEQEQAKATQADKSKKTLEGEIDNLRAQIEDEGKIKMRLEKEKRALEGELEELRETVEEAEDSKSEAEQSKRLVELELEDARRNLQKEIDAKEIAEDAKSNLQREIVEAKGR
notes: N-terminal methionine added before the myosin residues; Dictyostelium myosin-II heavy chain, a.a; 1,348-1,966 (Ala 1 through Ala 2); also called headless Ala1-Ala2 (2xThr); source: E. coli BL21-CodonPlus (DE3)-RIL, purified (boiling, DEAE, Superdex 200, Mono Q)
With B9, the binding result in data set [1] was “binds”.

These data come from paper PMC523230, “Dictyostelium Myosin Bipolar Thick Filament Formation: Importance of Charge and Specific Domains of the Myosin Rod” (PLoS Biology, 2004).
